Drawing on patent US20260028391A1, this text covers RSV Neutralization - IC50, MPV D280 Neutralization - IC50 and Kd for 16 molecules.

As a reminder, the Kd is the concentration at which binding is half-saturated. Read a high Kd as weaker binding.

The target of assay [1] is fusion glycoprotein of the RSV used in the neutralization assay of Example 1 (respiratory syncytial virus (strain not stated)). As to the kind of experiment: cell-based or functional assay.
Assay [2] concerns the target fusion glycoprotein of the MPV D280 used in the neutralization assay of Example 3 (metapneumovirus (strain not stated)). In words: cell-based or functional assay.
The target in assay [3] is MPV fusion glycoprotein with the D280N mutation (MPV-F N280) (metapneumovirus). As to the kind of experiment: SPR; F protein loaded on streptavidin sensors, mAb in solution.
Assay [4] has as its target MPV fusion glycoprotein without the D280N mutation (MPV-F D280) (metapneumovirus). The description is as above.
The target in assay [5] is RSV fusion glycoprotein (RSV-F) (respiratory syncytial virus (strain not stated)). In words: SPR; sensors loaded with RSV-F, mAb in solution (Experiment 2).

B1: MPK152 (antibody, V domains shown)
VH: EVQLVESGGGLVKPGGSLRLSCAASGLTISGYYMIWIRQAPGKGLEWISYISGSSSYTNYADSVKGRFTISRDNGQNTLFLQMDSLRVEDTAVYFCATEETPSPGPFGLWGQGTLVTVSS
VL: QSVVTQPPSVSGAPGQRVTISCTGTSSNIGAGYDVHWYQQFPGTSPKLLIFRNTNRPSGVPDRFSGSTSGSSASLAITGLQTEDEADYYCQSYDRSLDGWVFGGGTELTVL
B1 had an RSV Neutralization - IC50 in assay [1] of 30.8 ng/mL. In assay [2], the MPV D280 Neutralization - IC50 worked out at 15.2 ng/mL. Further, the Kd amounted to 0.069 nM in assay [3] and 1 pM in assay [4].

B2: MPK132-v1 (antibody, V domains shown)
VH: EVQLVESGGGLVKPGGSLRLSCEASGISLSGYYMIWIRQAPGKGLEWISSISSSSNYIDYADSVKGRFTISRHNGQNTLYLQMNSLRVEDTAVYFCATEQTPSPGPFELWGQGILVTVSS
VL: QSVVTQPPSVSGAPGQRVTIFCTGTSSNIGTGYDVHWYQQFPGTSPKLLIYRNTNRPSGVPDRFSGSKSGSSASLAIAGLQAEDEADYYCQSYDRSVSGWVFGGGTKLTVL
B2 gave an RSV Neutralization - IC50 in assay [1] of 18 ng/mL. The molecule also yielded an MPV D280 Neutralization - IC50 in assay [2] of 10.1 ng/mL. For the same molecule, the Kd in assay [3] was determined as 4.3 nM; in assay [4], 1 pM.

B3: MPK129 (antibody, V domains shown)
VH: EVQLVESGGGLVKPGGSLRLSCEASGFSLSGYYMIWIRQAPGKGLEWISSISGSGNYIDYADSVKGRFTISRDNGHNTLYLQMNSLRVEDTAVYYCATEQTPSPGPFDHWGQGTLVTVSS
VL: QTVVTQPPSVSGAPGQRVTISCTGTSSNIGTGYDVHWYQQFPGTSPKLLIYRNTNRPSGVPDRFSGSKSGSSASLAIAGLQAEDEADYYCQSYDRSVSGWVFGGGTKLTVL
B3 yielded an RSV Neutralization - IC50 in assay [1] of 14.9 ng/mL. The MPV D280 Neutralization - IC50 in assay [2] was 8.1 ng/mL. For the same molecule, the values for the equilibrium dissociation constant (Kd) in assay [3] and in assay [4] were 1.9 nM and 1 pM, respectively.

B4: MPK153 (antibody, V domains shown)
VH: EVHLVESGGGLVKPGGSLRLSCAASGFTFTGYFMIWIRQAPGKGLEWISYISSSSNYINYADSVKGRFTISRDNGQNTLYLQMNSLRPDDTAVYYCATEQVPSPGPFDLWGQGTLVTVSS
VL: QSVLTQPPSVSGAPGQRVIISCTGTSSNIGAGYDVHWYQQFPGASPKLLIFRNTDRPSGVPDRFSGSKSGSSASLAIAGLQAEDEADYYCQSYDRSLDGWVFGGGTKVTVL
As for B4, the RSV Neutralization - IC50 in assay [1] is 29.6 ng/mL. In addition, the MPV D280 Neutralization - IC50 in assay [2] came to 19.9 ng/mL. Moreover, the Kd is 5.5 nM in assay [3] and 1 pM in assay [4].

B5: MPK127 (antibody, V domains shown)
VH: QVQLVISGGGLVKPGGSLRLSCAASGFRIDSFSLNWVRQAPGKGLEWLASVSASSSYIDYRDSVAGRFTISRDNAQNSLYLQMDTLRAEDTAVYYCARTNGYETGSFDVWGQGTLVTVAS
VL: QSVLTQPPSVSGAPGQRVTISCTGSSSNIGAGYDVHWYQQLPGKAPKLLINANNNRPSGVPDRFSGSNSGTSASLAITGLQAEDEADYYCQSYDKTLSGYVFGLGTTVTVL
In assay [1], B5 came in with an RSV Neutralization - IC50 of 78.7 ng/mL. The MPV D280 Neutralization - IC50 in assay [2] was 24.3 ng/mL. Further, the Kd in assay [3] amounted to 0.001 nM; in assay [4], 1 pM.

B6: MPK169-v2 (antibody, V domains shown)
VH: EVQLVQSGAEVKKPGESLTISCQTSGYSFINYWIGWVRQMPGKGLEWMGVIYPFDSDTEYSPSFRGHVTISADKSINTAYLQWNSLGASDTAMYYCARFTFGIALVSGDVNGEGHAFDVWGRGTLVTVSS
VL: EIVLTQSPPTLSVSPGQRATLSCRASQSVADKLAWYQQRPGQAPRLLIYGASSRATGVPARFSGSGSETEFTLTITSLQSEDFALYYCHQYNNWPHAFGQGTRLVIK
In turn, B6 returned a Kd in assay [5] of 0.62 nM.

B7: MPK171-v1 (antibody, V domains shown)
VH: QVQLVQSGAEVKKPGESLKISCKGSGYSFINYWIGWVRQMPGKGLEWMGIIYPFDSDTKYSPSFQGHVTISADKSINTAYVQWSSLKASDTAMYYCARFTFGIAVVTDDVSGEGHAFDIWGQGTMVTVSS
VL: QSVLTQPPSVSGAPGQRVTISCAGSSSNIGAGFDVHWYQQVPGTAPKLLIYNTDNRASGVPDRFSASKSGTSASLAITGLQAEDEADYYCQSYDNSLSGVFGGGTKLTVL
In assay [5], B7 came in with a Kd of 1.2 nM. The RSV Neutralization - IC50 in assay [1] stood at 4.3 ng/mL.

B8: MPK191 (antibody, V domains shown)
VH: EVQLVQSGAEVKKPGESLKISCKGSGYSFINYWIGWVRQMPGKGLEWMGIIYPFDSDTKYSPSFQGHVTISADKSINTAYVQWSGLKASDTAMYYCARFTFGIAVVAGDVTGEGHAFDVWGQGTMVTVSS
VL: EIVMTQSPATLSVSPGDRATLSCRASQSVAGNLAWYQQRPGQTPRLLIYGASTRASGVPARFSGSGSETEFTLTISSLQSEDFAVYYCQQYDNWPHAFGQGTRLDIK
B8 registered an equilibrium dissociation constant (Kd) in assay [5] of 0.029 nM. The same molecule had an RSV Neutralization - IC50 in assay [1] of 1.2 ng/mL.

B9: MPK182 (antibody, V domains shown)
VH: EVQLVESGGGLVKPGGSLRLSCTASLSTFSDYYMTWIRQAPGKGLEWLGYISGSQSQTNLADSVKGRFTISRDNAKKSLYLQMNSLRVEDTATYFCARVHLWFGDLNALDLWGQGTKVTVSS
VL: QSVLTQPPSVSGAPGQRVTISCAGSSSNIGAGFDVHWYQQVPGTAPKLLIYNTDNRASGVPDRFSASKSGTSAFLAITGLQAEDEADYYCQSYDNSLSGVFGGGTKLTVL
B9: the Kd in assay [5] was determined as 2.8 nM.

B10: MPK167 (antibody, V domains shown)
VH: EVQLVQSGPEVKKPGESLKISCKASGYSFINYWIGWVRQMPGKGLEWMGIIYPFDSDTQYSPSFQGHVTISADKSINTAYVQWSSLKASDTAMYYCARFTFGIAVVAGDVSGEGHAFDIWGQGTMVTVSS
VL: EIVMMQSPATLSVSPGERATLSCRASQSVAGNLAWYQQSPGQAPRLLIYGASTRATGVPARFSGSGSETEFTLTISSLQSEDFAVYFCQQYSNWPHAFGQGTRLDIK
With B10, the Kd in assay [5] was 0.011 nM. The molecule also registered an RSV Neutralization - IC50 in assay [1] of 1 ng/mL.

B11: MPK126 (antibody, V domains shown)
VH: EVQLVESGGGLVKPGGSMRLSCAASGVTLSGYYMIWIRQAPGKGLEWISDISASSTYTDYADSVKGRFTVSRDNSQNTVYLQMNSLRAEDTAVYYCATEQTPSPGPFDLWGQGTLVTVSS
VL: QSVLTQPPSVSGAPGQRVTISCTGSSSNVGAGYDVHWYQQFPGTSPKLLIYRNTNRPSGVPDRFSGFKSGTSASLAITGLEAEDEADYYCQSYDRSLSGWVFGAGTKLTVL
Consider B11, for which, in assay [1], the RSV Neutralization - IC50 amounted to 26.4 ng/mL. In assay [2], this molecule had an MPV D280 Neutralization - IC50 of 23.6 ng/mL. Also, the Kd was 0.21 nM in assay [3] and 1 pM in assay [4].

B12: MPK155 (antibody, V domains shown)
VH: EVQLVESGGGLVKPGGSLRLSCEASGISLSGYYMIWIRQAPGKGLEWISSISSSSNYIDYADSVRGRFTISRHNGQNTLYLQMNSLRVEDTAVYFCATEQTPSPGPFDLWGQGILVTVSS
VL: QSVLTQPPSVSGAPGQRVTIFCTGTSSNLGAGYDVHWYQQFPGTSPKLLIYRYTNRPSGVPDRFSGSKSGSSASLAIAGLQAEDEADYYCQSYDRSVSGWVFGGGTKLTVL
Consider B12, for which, in assay [1], the RSV Neutralization - IC50 worked out at 26.5 ng/mL. Moreover, in assay [2], the MPV D280 Neutralization - IC50 amounted to 14.1 ng/mL. The Kd turned out to be 2.6 nM in assay [3] and 1 pM in assay [4].

B13: MPK151 (antibody, V domains shown)
VH: EVQLVESGGGLVKPGGSLRLSCAASGLTISGYYMIWIRQAPGKGLEWISDISASSTYTDYAESVKGRFSISRDNGQNTVYLQMNSLRAEDTAVYYCATEQTPSPGPFDLWGQGTLVTVSS
VL: QSVLTQPPSVSGAPGQKITISCTGGSSNFGAGYDVHWYQQFPGTSPKLLIYRNTFRPSGVPDRFSGSKSGTSASLAITGLQAEDEADYYCQSYDRSLSGWVFGGGTKLTVL
Molecule B13 showed an RSV Neutralization - IC50 in assay [1] of 37.5 ng/mL. The same molecule displayed an MPV D280 Neutralization - IC50 in assay [2] of 17.8 ng/mL. Moreover, the Kd is 0.27 nM in assay [3] and 1 pM in assay [4].

B14: MPK157 (antibody, V domains shown)
VH: EVQLVESGGGLVKPGGSLRLSCSASGFTLSGYNMNWVRQAPGKGLEWISYISASSSYINYADSVKGRFTISRDNGRSSLYLQMNSLRAEDTAVYFCTTQAELPGWFDPWGQGTLVTVSS
VL: QSVLTQPPSMSGAPGQRVTISCTGSSSNIGAGYDVNWYRQLPGTAPQLLIYRNTNRPSGVPDRFSGSNSGTSASLAITGLQADDEAHYYCQSYDRSLSGWVFGGGTKLTVL
In the case of B14, in assay [1], the RSV Neutralization - IC50 was determined as 24.1 ng/mL. Moreover, the MPV D280 Neutralization - IC50 in assay [2] was determined as 7.9 ng/mL. Also, the Kd in assay [3] is 1.2 nM; in assay [4] it was 1 pM.

B15: MPK177 (antibody, V domains shown)
VH: EVQLVQSGAEVKKPGESLKISCQVSGYSFMNYWVGWVRQMPGKGLEWMGIIYPFDSDTIYSPSFQGHVTISADTSITTAYLHWSSLKASDTATYYCARFTFGIAVVADGLSGDGEAFDIWGQGTVVTVSS
VL: DIVMTQTPATLSVSPGERATLSCRASQSVAGKLAWYQQRPGQTPRLLIYGASTRATGVPARFSGSGSETEFTLTISSLQSEDFAVYYCQQYSSWPHAFGQGTRLDIK
As to B15, the Kd in assay [5] amounted to 0.001 nM. In addition, in assay [1], the RSV Neutralization - IC50 worked out at 1 ng/mL.

B16: MPK195 (antibody, V domains shown)
VH: EVQLVQSGAAVKKPGESLKISCRGSGYSFINYWIGWVRQMPGKGLEWMGVIYPFDSDTQYSPSFQGHVTISADKSINTAYLQWDSLKAADTAIYYCARFTFGIALSTADVYGEGQAFDIWGPGTMVTVSS
VL: EIVLTQSPATLSVSPGERATLSCRASQSVAGKIAWYQQRPGQAPRLLIYGASTRATGVPARFSGSGSETEFTLTISSLQSEDFAVYYCQQYSNWPQAFGPGTRLDMK
The molecule B16 came in with a dissociation constant (Kd) in assay [5] of 0.001 nM. In assay [1], this molecule showed an RSV Neutralization - IC50 of 1.1 ng/mL.
